From patent US20050282743A1, “Molecular interactions in cells” (Arbor Vita Corporation, priority 2001, published 2005)
Ends that are not written are not given here. Peptide text beside a SMILES is read from it. * marks the point of attachment. Biotin = O=C1N[C@H]2[C@H](CS[C@H]2CCCCC(=O)*)N1

Assays:
Assay type in all cases: binding
[1] = biological target: T1, PDZ protein (GST-PDZ fusion) (Homo sapiens, UniProt P55196); assay: G' assay (10 uM PL peptide), results of TABLE 7 and TABLE 12; conditions: PDZ AF6, PDZ Domain 1
T1 construct: made in house; host or cells: E. coli (DH5alpha, BL21 or JM109)
Outline: (§1)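 Biotinylated PL peptides at 10 uM (vs 20 uM in G^0 assay) bound to GST-PDZ fusions; PDZ protein at 5 ug/ml unless another concentration listed. Bound peptide read as A450 nm, classified 0–5 (0 = A450 0; 5 = A450 >4 repeated).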

[2] = biological target: T2, PSD95 (PDZ Domain 1, 2, 3) (Homo sapiens, UniProt P78352); assay: G' assay, TABLE 12; conditions: A450 nm class of biotinylated PL peptide bound; 0 in conc columns = peptide 10 uM, protein 5 ug/ml
T2 construct: When more than one PDZ domain was cloned, the DNA portion cloned represents the PDZ domains and the cDNA portion located between individual domains; made in house; host or cells: E. coli (DH5alpha, BL21 or JM109)
Outline: (§2)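 PL peptide binding to PDZ domain protein, peptide at 10 uM; protein at 5 ug/ml unless another concentration is listed for Kd determination. Bound peptide read at A450 nm and binned into classes 0–5.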

NeDLG (PDZ Domain 1, 2) = biological target: T3, NeDLG (PDZ Domain 1, 2) (Homo sapiens, UniProt Q92796); assay: G' assay, TABLE 12; conditions: A450 nm class of biotinylated PL peptide bound; 0 in conc columns = peptide 10 uM, protein 5 ug/ml
T3 construct: When more than one PDZ domain was cloned, the DNA portion cloned represents the PDZ domains and the cDNA portion located between individual domains; made in house; host or cells: E. coli (DH5alpha, BL21 or JM109)
T3 sequence (Q92796 129-315 limits assumed): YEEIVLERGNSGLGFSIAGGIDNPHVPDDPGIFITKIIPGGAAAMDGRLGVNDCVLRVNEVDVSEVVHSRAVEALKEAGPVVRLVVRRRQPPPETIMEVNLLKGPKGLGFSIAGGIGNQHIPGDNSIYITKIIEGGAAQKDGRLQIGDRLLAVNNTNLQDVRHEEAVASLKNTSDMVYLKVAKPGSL
Outline: as §2

DLG1 (PDZ Domain 1, 2) = biological target: T4, DLG1 (PDZ Domain 1, 2) (Homo sapiens, UniProt Q12959); assay: G' assay, TABLE 12; conditions: A450 nm class of biotinylated PL peptide bound; 0 in conc columns = peptide 10 uM, protein 5 ug/ml
T4 construct: made in house; host or cells: E. coli (DH5alpha, BL21 or JM109)
Outline: as §2

[3] = biological target: T5, PDZ protein (GST-PDZ fusion) (Homo sapiens, UniProt Q9NR12); assay: G' assay (10 uM PL peptide), results of TABLE 7 and TABLE 12; conditions: PDZ ENIGMA, PDZ Domain 1
T5 construct: made in house; host or cells: E. coli (DH5alpha, BL21 or JM109)
Outline: as §1

[4] = biological target: T6, PDZ protein (GST-PDZ fusion) (Homo sapiens, UniProt O95049); assay: as above
T6 construct: made in house; host or cells: E. coli (DH5alpha, BL21 or JM109)
T6 sequence (O95049 1-919): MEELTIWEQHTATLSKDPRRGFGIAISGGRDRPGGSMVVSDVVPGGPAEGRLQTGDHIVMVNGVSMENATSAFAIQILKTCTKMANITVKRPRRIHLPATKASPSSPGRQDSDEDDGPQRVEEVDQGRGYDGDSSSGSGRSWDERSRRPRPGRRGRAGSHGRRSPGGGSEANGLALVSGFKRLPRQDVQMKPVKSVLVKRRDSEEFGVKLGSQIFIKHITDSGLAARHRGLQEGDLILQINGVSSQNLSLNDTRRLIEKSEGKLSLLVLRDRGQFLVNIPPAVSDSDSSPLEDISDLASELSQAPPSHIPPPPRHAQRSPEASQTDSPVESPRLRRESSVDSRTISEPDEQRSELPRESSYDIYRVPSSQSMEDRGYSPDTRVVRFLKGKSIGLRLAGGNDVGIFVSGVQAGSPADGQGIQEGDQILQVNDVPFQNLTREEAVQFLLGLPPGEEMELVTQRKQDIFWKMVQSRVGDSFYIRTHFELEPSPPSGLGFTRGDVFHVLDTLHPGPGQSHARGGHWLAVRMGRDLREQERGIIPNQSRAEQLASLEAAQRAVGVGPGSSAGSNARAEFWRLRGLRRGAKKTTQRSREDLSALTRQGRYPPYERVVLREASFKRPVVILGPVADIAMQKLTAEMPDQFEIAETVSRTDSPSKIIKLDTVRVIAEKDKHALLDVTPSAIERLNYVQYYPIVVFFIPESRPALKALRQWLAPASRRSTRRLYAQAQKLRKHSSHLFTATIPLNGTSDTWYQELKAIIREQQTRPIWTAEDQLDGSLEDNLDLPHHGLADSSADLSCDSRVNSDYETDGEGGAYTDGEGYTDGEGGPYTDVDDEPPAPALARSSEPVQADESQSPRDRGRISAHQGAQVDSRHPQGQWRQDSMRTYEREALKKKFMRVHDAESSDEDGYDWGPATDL
Outline: as §1

KIAA807 = biological target: T7, KIAA807 (Homo sapiens, UniProt Q6P0Q8); assay: G' assay, TABLE 12; conditions: A450 nm class of biotinylated PL peptide bound; 0 in conc columns = peptide 10 uM, protein 5 ug/ml
T7 construct: made in house; host or cells: E. coli (DH5alpha, BL21 or JM109)
T7 sequence (Q6P0Q8 1104-1192 limits assumed): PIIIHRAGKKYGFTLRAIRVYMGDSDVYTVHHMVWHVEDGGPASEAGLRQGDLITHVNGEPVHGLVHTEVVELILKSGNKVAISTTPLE
Outline: as §2

T5 sequence (Q9NR12 whole entry, the tested form may be a part): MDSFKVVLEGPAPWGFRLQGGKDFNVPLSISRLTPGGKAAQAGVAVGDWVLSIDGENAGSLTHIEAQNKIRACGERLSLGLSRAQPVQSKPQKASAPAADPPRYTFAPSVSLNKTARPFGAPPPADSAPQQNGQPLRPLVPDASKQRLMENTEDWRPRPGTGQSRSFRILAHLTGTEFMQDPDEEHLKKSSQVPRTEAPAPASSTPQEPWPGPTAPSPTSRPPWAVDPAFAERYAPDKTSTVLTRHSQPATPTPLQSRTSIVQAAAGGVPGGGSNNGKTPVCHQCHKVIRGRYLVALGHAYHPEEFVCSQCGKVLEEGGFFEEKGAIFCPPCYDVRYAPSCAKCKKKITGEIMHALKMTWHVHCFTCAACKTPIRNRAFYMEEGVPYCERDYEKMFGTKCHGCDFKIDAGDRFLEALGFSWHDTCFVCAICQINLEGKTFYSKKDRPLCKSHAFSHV
T2 sequence (P78352 58-398 limits assumed): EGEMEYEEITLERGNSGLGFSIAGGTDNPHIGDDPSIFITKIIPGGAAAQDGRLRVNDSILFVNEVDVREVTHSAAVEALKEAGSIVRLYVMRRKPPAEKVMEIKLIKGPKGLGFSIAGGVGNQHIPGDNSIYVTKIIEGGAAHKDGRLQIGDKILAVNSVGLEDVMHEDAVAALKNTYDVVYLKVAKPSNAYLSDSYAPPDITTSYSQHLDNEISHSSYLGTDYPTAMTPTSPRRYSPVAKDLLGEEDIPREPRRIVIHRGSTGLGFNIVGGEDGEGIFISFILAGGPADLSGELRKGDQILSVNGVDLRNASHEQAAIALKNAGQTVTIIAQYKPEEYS
T1 sequence (P55196 whole entry, the tested form may be a part): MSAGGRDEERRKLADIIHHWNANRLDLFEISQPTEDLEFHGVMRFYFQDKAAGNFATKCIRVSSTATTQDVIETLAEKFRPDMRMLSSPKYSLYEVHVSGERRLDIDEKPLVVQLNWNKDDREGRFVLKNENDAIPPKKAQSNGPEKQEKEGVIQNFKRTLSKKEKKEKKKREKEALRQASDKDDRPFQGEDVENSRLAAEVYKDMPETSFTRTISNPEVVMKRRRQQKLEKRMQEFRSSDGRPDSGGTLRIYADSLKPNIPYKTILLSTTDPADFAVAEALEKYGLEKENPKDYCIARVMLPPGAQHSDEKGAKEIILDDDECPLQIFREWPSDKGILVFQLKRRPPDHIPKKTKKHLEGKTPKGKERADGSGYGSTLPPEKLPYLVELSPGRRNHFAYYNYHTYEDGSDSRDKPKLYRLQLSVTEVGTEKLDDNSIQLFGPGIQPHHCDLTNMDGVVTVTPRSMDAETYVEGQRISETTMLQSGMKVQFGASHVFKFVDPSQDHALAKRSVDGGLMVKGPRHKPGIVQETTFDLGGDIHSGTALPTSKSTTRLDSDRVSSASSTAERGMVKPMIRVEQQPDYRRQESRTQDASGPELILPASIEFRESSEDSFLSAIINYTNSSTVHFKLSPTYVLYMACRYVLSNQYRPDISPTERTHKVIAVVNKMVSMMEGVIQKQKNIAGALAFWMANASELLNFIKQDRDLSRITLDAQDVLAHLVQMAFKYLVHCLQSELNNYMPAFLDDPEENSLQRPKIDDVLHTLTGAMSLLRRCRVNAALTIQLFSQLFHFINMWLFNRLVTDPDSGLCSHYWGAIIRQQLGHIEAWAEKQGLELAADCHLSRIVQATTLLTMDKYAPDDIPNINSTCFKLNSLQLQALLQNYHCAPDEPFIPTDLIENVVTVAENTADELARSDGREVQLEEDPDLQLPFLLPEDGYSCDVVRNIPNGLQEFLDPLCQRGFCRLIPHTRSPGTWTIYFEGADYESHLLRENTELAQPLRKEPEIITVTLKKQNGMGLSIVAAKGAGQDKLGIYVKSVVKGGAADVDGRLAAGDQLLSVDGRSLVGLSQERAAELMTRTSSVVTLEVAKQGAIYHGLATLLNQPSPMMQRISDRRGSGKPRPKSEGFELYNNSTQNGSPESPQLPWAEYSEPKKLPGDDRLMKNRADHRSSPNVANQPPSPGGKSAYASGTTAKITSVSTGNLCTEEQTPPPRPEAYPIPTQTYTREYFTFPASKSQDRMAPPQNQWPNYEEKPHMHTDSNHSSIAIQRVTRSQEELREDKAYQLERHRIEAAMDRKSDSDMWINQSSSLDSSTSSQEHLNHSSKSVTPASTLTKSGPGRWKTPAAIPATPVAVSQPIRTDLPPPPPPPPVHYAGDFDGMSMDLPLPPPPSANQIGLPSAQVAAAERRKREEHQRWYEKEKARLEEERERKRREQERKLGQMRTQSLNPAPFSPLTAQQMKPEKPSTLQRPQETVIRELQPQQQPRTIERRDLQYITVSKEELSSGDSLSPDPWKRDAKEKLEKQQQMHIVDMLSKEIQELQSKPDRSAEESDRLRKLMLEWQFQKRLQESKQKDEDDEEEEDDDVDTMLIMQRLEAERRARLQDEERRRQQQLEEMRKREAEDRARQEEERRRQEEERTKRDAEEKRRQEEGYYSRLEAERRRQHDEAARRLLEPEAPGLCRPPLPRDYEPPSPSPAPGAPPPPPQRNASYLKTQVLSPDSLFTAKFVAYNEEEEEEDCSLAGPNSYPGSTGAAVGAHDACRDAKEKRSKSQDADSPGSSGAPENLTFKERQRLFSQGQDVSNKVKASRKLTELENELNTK
T4 sequence (Q12959 213-413 limits assumed): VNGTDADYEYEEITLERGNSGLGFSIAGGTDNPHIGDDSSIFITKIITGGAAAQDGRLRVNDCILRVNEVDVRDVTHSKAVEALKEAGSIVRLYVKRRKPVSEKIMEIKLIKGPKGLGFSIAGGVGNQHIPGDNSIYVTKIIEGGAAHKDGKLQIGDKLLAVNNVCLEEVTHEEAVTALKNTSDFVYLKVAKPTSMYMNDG

CC[C@H](C)[C@H](NC(=O)[C@H](Cc1ccc(O)cc1)NC(=O)[C@H](CC(C)C)NC(=O)[C@H](CCC(N)=O)NC(=O)[C@H](Cc1c[nH]cn1)NC(=O)[C@H](CO)NC(=O)[C@H](C)NC(=O)[C@H](CC(C)C)NC(=O)[C@@H](NC(=O)[C@H](CC(=O)O)NC(=O)[C@H](CCSC)NC(=O)[C@H](Cc1ccccc1)NC(=O)[C@@H]1CCCN1C(=O)[C@H](CCCNC(=N)N)NC(=O)[C@@H](NC(=O)[C@H](CC(C)C)NC(=O)[C@H](CC(N)=O)NC(=O)[C@H](CC(=O)O)NC(=O)[C@@H](NC(=O)[C@H](CO)NC(=O)CCCC[C@@H]1SC[C@@H]2NC(=O)N[C@@H]21)[C@@H](C)O)C(C)C)[C@@H](C)O)C(=O)O [presenilin-2] (Biotin-STDNLVRPFMDTLASHQLYI-OH; C-terminus assumed)
Classification [1]: 3 (A450 nm 2-3)

KTMPAATYRLLTGQEQPVYL (Biotin-KTMPAATYRLLTGQEQPVYL) [MINT-3]
Classification [1]: 1 (A450 nm 0-1)

CC[C@H](C)[C@H](NC(=O)[C@H](CC(=O)O)NC(=O)[C@H](CCC(=O)O)NC(=O)[C@H](CCCNC(=N)N)NC(=O)[C@@H](NC(=O)CCCC[C@@H]1SC[C@@H]2NC(=O)N[C@@H]21)[C@@H](C)O)C(=O)N[C@@H](Cc1ccc(O)cc1)C(=O)N[C@H](C(=O)N[C@@H](CC(N)=O)C(=O)N[C@@H](Cc1ccc(O)cc1)C(=O)N1CCC[C@H]1C(=O)N[C@H](C(=O)N[C@@H](Cc1ccccc1)C(=O)N[C@@H](CO)C(=O)N[C@@H](CCCNC(=N)N)C(=O)N[C@@H](CCCNC(=N)N)C(=O)N1CCC[C@H]1C(=O)N[C@@H](CCCCN)C(=O)N[C@H](C(=O)N[C@@H](CCCNC(=N)N)C(=O)N[C@H](C(=O)O)C(C)C)[C@@H](C)O)[C@@H](C)O)C(C)C [DNAM-1] (Biotin-TREDIYVNYPTFSRRPKTRV-OH; C-terminus assumed)
Classification [2]: 2 (A450 nm 1-2) | Classification (NeDLG (PDZ Domain 1, 2)): 2 (A450 nm 1-2) | Classification (DLG1 (PDZ Domain 1, 2)): 1 (A450 nm 0-1)

GGGGGSGGGGGSGIESVKI [GLUR2 (glutamate receptor 2-modified)]
Classification [3]: 1 (A450 nm 0-1)

ELLQFCRTPNPALKNGQYWV (Biotin-ELLQFCRTPNPALKNGQYWV)
Classification ([4]; PDZ ZO-3, PDZ Domain 1): 2 (A450 nm 1-2) | Classification ([4]; PDZ ZO-3, PDZ Domain 3): 5 (A450 nm of 4 more than 2× repeated) | Classification [1]: 5 (A450 nm of 4 more than 2× repeated)

VHDAESSDEDGYDWGPATDL (Biotin-VHDAESSDEDGYDWGPATDL) [zona occludens 3 (ZO-3)]
Classification [3]: 1 (A450 nm 0-1)

QATSRNGHSARQHVVADTEL (Biotin-QATSRNGHSARQHVVADTEL) [CD34]
Classification (KIAA807): 5 (A450 nm of 4 more than 2× repeated)

ARHRVTSYTSSSVNVSSNL (Biotin-ARHRVTSYTSSSVNVSSNL) [IL-8RB]
Classification [2]: 1 (A450 nm 0-1)

A2AA_HUMAN (modified) (Biotin-HDFRRAFKKILARGDRKRIV; not fully specified)
Classification ([4]; PDZ ZO-3, PDZ Domain 2): 3 (A450 nm 2-3)

CC[C@H](C)[C@H](NC(=O)[C@H](CO)NC(=O)[C@H](CCC(=O)O)NC(=O)[C@H](Cc1ccc(O)cc1)NC(=O)[C@H](CC(=O)O)NC(=O)[C@H](CC(N)=O)NC(=O)[C@H](CCC(=O)O)NC(=O)[C@H](CCCCN)NC(=O)CCCC[C@@H]1SC[C@@H]2NC(=O)N[C@@H]21)C(=O)N[C@@H](CO)C(=O)N[C@@H](CC(=O)O)C(=O)N[C@@H](CC(C)C)C(=O)N[C@@H](CCC(N)=O)C(=O)N[C@@H](CCC(N)=O)C(=O)NCC(=O)N[C@@H](CCCNC(=N)N)C(=O)N[C@@H](CC(=O)O)C(=O)N[C@H](C(=O)N[C@H](C(=O)N[C@@H](CCCNC(=N)N)C(=O)N[C@@H](CC(C)C)C(=O)O)[C@@H](C)O)[C@@H](C)CC [PAG] (Biotin-KENDYESISDLQQGRDITRL-OH; C-terminus assumed)
Classification (KIAA807): 5 (A450 nm of 4 more than 2× repeated)

ISGTPTSTMVHGMTSSSSVV (Biotin-ISGTPTSTMVHGMTSSSSVV) [Clasp-2]
Classification [2]: 2 (A450 nm 1-2) | Classification (NeDLG (PDZ Domain 1, 2)): 2 (A450 nm 1-2)

CC[C@H](C)[C@H](NC(=O)[C@H](Cc1ccc(O)cc1)NC(=O)[C@@H](NC(=O)[C@@H]1CCCN1C(=O)[C@H](CCC(N)=O)NC(=O)[C@H](CCC(=O)O)NC(=O)[C@H](CCC(N)=O)NC(=O)[C@H](C)NC(=O)[C@@H](NC(=O)[C@H](CC(C)C)NC(=O)[C@H](CC(C)C)NC(=O)[C@H](CCCNC(=N)N)NC(=O)[C@H](Cc1ccc(O)cc1)NC(=O)[C@H](CCSC)NC(=O)[C@H](C)NC(=O)[C@H](C)NC(=O)[C@@H]1CCCN1C(=O)[C@H](CCSC)NC(=O)[C@@H](NC(=O)[C@H](CCCCN)NC(=O)CCCC[C@@H]1SC[C@@H]2NC(=O)N[C@@H]21)[C@@H](C)O)[C@@H](C)O)C(C)C)C(=O)O [MINT-1] (Biotin-KTMPAAMYRLLTAQEQPVYI-OH; C-terminus assumed)
Classification ([4]; PDZ ZO-3, PDZ Domain 1): 2 (A450 nm 1-2) | Classification ([4]; PDZ ZO-3, PDZ Domain 3): 1 (A450 nm 0-1)

KTMPAAMFRLLTGQETPLYI (Biotin-KTMPAAMFRLLTGQETPLYI) [MINT-2]
Classification ([4]; PDZ ZO-3, PDZ Domain 3): 1 (A450 nm 0-1)

CC(C)C[C@H](NC(=O)[C@H](CC(=O)O)NC(=O)[C@H](CO)NC(=O)[C@H](CCC(=O)O)NC(=O)CNC(=O)[C@H](Cc1ccc(O)cc1)NC(=O)[C@H](CC(C)C)NC(=O)[C@H](C)NC(=O)[C@H](CO)NC(=O)[C@H](CO)NC(=O)[C@H](Cc1ccccc1)NC(=O)[C@H](C)NC(=O)[C@H](C)NC(=O)[C@H](Cc1ccc(O)cc1)NC(=O)[C@H](CC(=O)O)NC(=O)[C@H](CC(C)C)NC(=O)[C@H](C)NC(=O)CNC(=O)[C@@H]1CCCN1C(=O)[C@@H](NC(=O)CCCC[C@@H]1SC[C@@H]2NC(=O)N[C@@H]21)C(C)C)C(=O)O [a-actinin 2] (Biotin-VPGALDYAAFSSALYGESDL-OH; C-terminus assumed)
Classification [3]: 5 (A450 nm of 4 more than 2× repeated)

LASKSAEEGKQIPDSLSTDL (Biotin-LASKSAEEGKQIPDSLSTDL) [Dock2]
Classification (KIAA807): 5 (A450 nm of 4 more than 2× repeated)

GPVPGEPAKPKTSAHHATFV (Biotin-GPVPGEPAKPKTSAHHATFV)
Classification [1]: 1 (A450 nm 0-1)

PYSELNYETSHYPASPDSWV (Biotin-PYSELNYETSHYPASPDSWV) [catenin - delta 2]
Classification ([4]; PDZ ZO-3, PDZ Domain 3): 3 (A450 nm 2-3)

CC[C@H](C)[C@H](NC(=O)[C@H](CCC(=O)O)NC(=O)[C@H](CC(N)=O)NC(=O)[C@H](CCCNC(=N)N)NC(=O)[C@H](Cc1ccccc1)NC(=O)[C@H](CC(N)=O)NC(=O)[C@H](CO)NC(=O)[C@H](CC(N)=O)NC(=O)[C@H](CCC(=O)O)NC(=O)[C@H](CO)NC(=O)[C@H](CC(=O)O)NC(=O)[C@H](CO)NC(=O)[C@@H](NC(=O)[C@@H](NC(=O)[C@H](CC(=O)O)NC(=O)[C@H](CCCCN)NC(=O)CCCC[C@@H]1SC[C@@H]2NC(=O)N[C@@H]21)[C@@H](C)CC)[C@@H](C)O)C(=O)N[C@@H](CCC(N)=O)C(=O)N[C@@H](CO)C(=O)N[C@@H](CC(C)C)C(=O)N[C@H](C(=O)O)C(C)C [CD95] (Biotin-KDITSDSENSNFRNEIQSLV-OH; C-terminus assumed)
Classification [2]: 1 (A450 nm 0-1) | Classification (NeDLG (PDZ Domain 1, 2)): 1 (A450 nm 0-1) | Classification (DLG1 (PDZ Domain 1, 2)): 2 (A450 nm 1-2)
